From PMC549075, “HIV-1 Tat protein enhances Microtubule polymerization” (Retrovirology, 2005)

Legend:
Lamb brain tubulin [1] = biological target: Lamb brain tubulin (lamb); experiment: cell-based or functional assay
Lamb brain tubulin [2] = biological target: Lamb brain tubulin (lamb); experiment: cell-based or functional assay; remark: listed apart in the source

B1: HIV-1 Tat protein, HxB2 strain (natural protein)
chain: MEPVDPRLEPWKHPGSQPKTACTNCYCKKCCFHCQVCFITKALGISYGRKKRRQRRRAHQNSQTHQASLSKQPTSQPRGDPTGPKE
- fold increase of the turbidity plateau over tubulin alone, 4 μM and 8 μM Tat with 15 μM tubulin (Lamb brain tubulin [1]): 3.7 fold
- ΔOD ratio (plateau with 8 μM compound divided by plateau of tubulin alone) (Lamb brain tubulin [2]): 3.31
